# In patent publication US6942988 (Johns Hopkins, dated 2005):
# T1: full-length mouse Ptc (patched receptor) (mouse, UniProt Q61115 1-1434)
# T1 construct: whole, on cells; Predicted mass 159 kDa
# T1 sequence (looked up): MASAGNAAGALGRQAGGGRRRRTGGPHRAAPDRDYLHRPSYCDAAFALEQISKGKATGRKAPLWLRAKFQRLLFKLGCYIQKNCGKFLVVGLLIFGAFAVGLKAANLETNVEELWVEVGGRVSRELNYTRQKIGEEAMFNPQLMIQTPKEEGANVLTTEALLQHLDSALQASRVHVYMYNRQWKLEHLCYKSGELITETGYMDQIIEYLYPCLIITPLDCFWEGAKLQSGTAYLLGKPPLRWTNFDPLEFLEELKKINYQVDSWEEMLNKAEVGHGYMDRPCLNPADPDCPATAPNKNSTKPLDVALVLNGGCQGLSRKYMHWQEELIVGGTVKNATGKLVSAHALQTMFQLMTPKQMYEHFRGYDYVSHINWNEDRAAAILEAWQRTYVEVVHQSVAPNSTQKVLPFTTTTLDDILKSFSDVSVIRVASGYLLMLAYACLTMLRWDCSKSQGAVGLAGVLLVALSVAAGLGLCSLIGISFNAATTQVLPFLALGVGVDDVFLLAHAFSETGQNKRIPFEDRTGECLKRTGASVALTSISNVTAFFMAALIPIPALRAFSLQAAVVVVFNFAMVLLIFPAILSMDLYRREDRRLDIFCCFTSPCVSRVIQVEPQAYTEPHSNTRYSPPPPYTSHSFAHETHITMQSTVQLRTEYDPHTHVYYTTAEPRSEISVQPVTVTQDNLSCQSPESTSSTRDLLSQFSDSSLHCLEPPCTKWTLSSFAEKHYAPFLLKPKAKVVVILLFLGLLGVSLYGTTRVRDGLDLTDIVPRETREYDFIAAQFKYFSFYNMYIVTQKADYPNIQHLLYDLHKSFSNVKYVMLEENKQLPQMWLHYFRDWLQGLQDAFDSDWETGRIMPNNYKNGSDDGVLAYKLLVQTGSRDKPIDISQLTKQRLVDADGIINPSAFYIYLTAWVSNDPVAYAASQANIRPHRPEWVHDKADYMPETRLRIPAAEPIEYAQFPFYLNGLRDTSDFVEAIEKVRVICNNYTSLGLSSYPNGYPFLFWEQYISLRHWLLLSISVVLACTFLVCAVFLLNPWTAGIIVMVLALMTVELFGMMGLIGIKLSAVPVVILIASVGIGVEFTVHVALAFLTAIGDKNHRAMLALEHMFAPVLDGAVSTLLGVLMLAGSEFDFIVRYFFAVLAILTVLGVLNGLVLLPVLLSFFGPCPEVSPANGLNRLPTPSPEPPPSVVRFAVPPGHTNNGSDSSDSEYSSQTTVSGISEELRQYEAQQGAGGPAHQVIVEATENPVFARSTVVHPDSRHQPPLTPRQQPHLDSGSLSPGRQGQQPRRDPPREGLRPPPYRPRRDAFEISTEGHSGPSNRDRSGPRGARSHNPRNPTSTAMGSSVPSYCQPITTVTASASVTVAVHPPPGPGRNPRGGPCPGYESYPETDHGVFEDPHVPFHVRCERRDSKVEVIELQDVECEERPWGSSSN
# B1: Shh-N SC mutant protein (P42A, K46A, R154A, S157A, S178A, K179A) (ligand)
# chain: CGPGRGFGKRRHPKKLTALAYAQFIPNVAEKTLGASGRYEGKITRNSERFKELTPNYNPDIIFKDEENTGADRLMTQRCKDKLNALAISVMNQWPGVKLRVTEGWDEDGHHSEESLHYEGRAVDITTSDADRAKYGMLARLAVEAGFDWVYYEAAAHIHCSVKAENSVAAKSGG
# notes: Limits of the entry not visible; also called SC altered protein
# B2: Shh-N SD altered protein (E90A, D132A, E138A) (ligand)
# chain: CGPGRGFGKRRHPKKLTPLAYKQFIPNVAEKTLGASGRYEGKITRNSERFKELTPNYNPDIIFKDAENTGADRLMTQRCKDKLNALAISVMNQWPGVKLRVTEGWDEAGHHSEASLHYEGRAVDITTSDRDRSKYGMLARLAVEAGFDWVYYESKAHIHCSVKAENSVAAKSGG
# B3: Shh-N SA altered protein (K75A, E76A, Y81A, D105A, N116A, E189A, K195A) (ligand)
# chain: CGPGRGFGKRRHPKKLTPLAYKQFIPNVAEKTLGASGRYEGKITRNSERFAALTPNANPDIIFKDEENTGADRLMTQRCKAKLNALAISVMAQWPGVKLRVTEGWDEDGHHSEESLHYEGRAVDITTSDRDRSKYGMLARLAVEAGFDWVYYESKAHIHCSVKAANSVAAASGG
# B4: Shh-N SG protein (S178A, K179A) (ligand)
# chain: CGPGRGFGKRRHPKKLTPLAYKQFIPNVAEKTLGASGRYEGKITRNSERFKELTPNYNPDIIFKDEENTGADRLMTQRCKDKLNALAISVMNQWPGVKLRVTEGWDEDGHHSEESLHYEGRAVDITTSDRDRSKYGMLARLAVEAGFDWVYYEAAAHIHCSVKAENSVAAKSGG
# B5: Shh-N SE protein (P42A, K46A) (ligand)
# chain: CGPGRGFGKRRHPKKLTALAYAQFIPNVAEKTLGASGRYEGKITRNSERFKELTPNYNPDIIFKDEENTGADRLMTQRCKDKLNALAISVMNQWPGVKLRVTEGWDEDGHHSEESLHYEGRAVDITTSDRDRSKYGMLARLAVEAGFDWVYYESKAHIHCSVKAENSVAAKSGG
# B6: Shh-N H135A, E177A double mutant (EH) protein (ligand)
# chain: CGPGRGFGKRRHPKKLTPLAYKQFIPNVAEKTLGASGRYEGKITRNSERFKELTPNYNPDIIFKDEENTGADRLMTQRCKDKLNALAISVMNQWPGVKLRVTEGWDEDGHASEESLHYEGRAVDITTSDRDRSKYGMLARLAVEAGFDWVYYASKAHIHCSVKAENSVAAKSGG
# B7: Shh-N SF protein (R154A, S157A) (ligand)
# chain: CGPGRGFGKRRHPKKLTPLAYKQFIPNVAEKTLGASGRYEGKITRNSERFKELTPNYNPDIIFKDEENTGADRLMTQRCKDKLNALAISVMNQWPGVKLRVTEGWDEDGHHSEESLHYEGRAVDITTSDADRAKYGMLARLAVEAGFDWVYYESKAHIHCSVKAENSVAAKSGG
# B8: Shh-N SB altered protein (N51A, V52A, T56A, E168A) (ligand)
# chain: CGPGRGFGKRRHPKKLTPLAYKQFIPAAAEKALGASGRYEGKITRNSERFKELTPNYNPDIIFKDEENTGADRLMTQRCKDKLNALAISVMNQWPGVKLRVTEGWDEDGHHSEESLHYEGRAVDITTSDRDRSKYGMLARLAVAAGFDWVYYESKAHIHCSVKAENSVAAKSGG
# Biological target: T1, full-length mouse Ptc (patched receptor)
# Assay: competition of the disuccinimidyl suberate crosslinking of 32P-Shh-N to Ptc-expressing EcR-293 cells
row,Binder,binding result
1,B1,no binding

# Biological target: T2, Ptc (patched receptor) of the cells of chicken intermediate neural plate explants
# T2 sequence (Q90693 whole entry): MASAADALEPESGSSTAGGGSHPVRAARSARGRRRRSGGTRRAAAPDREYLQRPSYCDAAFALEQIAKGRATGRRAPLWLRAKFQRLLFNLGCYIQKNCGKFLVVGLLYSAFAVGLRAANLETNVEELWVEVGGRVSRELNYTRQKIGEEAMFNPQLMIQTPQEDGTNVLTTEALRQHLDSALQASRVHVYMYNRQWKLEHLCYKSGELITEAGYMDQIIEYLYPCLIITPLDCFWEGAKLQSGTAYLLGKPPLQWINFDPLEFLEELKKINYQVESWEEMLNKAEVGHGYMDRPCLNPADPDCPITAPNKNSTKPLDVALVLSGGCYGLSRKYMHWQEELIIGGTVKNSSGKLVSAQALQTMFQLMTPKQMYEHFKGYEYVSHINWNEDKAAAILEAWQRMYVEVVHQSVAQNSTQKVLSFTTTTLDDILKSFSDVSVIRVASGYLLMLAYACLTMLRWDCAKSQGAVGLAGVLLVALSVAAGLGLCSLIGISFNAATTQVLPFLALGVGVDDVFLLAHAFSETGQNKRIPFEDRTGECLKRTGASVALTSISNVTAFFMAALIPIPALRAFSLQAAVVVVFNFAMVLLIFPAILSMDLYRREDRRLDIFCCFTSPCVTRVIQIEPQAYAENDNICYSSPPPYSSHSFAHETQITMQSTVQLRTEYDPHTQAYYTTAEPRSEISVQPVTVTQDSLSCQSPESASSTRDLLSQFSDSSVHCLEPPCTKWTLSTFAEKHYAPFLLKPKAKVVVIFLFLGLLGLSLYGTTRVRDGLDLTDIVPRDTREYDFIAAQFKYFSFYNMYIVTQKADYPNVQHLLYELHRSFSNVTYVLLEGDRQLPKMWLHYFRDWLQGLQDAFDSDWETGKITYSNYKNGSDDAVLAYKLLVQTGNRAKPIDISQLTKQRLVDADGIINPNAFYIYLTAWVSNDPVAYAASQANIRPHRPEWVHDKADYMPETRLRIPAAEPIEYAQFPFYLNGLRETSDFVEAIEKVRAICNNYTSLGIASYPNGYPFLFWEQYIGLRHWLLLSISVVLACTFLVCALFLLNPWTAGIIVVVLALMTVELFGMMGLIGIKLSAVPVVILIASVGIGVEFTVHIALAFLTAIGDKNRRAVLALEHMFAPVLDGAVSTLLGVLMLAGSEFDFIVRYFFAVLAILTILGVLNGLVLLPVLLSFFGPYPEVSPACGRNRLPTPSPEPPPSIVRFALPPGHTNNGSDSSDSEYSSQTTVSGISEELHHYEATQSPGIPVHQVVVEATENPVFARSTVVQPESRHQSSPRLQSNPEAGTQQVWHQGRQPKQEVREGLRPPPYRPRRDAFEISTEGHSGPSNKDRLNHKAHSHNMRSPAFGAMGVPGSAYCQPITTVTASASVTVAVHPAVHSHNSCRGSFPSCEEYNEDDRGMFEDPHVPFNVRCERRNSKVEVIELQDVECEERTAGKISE
# Assay: cell-based or functional assay
row,Binder,reduction in neural plate signaling activity against wild type
1,B2,~2.5 fold

# Biological target: T2, Ptc (patched receptor) of the cells of …
# Assay: cell-based or functional assay
# Remark: another data set of the same source
Binder,"HNF-3β induction, nM (minimum concentration for uniform induction, chicken neural plate explants)","Pax-7 repression, nM (minimum concentration for complete repression, chicken neural plate explants)"
B3,≤ 20 nM,~4 nM
B4,~100 nM,~30 nM
B1,> 1000 nM,> 1000 nM
B2,≥ 20 nM,~10 nM
B5,~100 nM,~20 nM
B6,≥ 20 nM,~10 nM
B7,≥ 100 nM,~70 nM
B8,≥ 20 nM,~4 nM
